Data on 21 substances can be found in patent publication US20020103123A1.

Values joined by “and” are separate entries in the source; they are usually repeats but may differ in a detail not shown here. Equal entries are not always repeated. Where two headings read alike, the source gives them in different places.

The target of assay [1] is rat Y4 receptor (rat) (UniProt Q63447). The assay is described as follows: 125I-PYY displacement, COS-7 membranes.
Assay [2] concerns the target T1, rat hypothalamic Y5 receptor (rat).
T1 sequence: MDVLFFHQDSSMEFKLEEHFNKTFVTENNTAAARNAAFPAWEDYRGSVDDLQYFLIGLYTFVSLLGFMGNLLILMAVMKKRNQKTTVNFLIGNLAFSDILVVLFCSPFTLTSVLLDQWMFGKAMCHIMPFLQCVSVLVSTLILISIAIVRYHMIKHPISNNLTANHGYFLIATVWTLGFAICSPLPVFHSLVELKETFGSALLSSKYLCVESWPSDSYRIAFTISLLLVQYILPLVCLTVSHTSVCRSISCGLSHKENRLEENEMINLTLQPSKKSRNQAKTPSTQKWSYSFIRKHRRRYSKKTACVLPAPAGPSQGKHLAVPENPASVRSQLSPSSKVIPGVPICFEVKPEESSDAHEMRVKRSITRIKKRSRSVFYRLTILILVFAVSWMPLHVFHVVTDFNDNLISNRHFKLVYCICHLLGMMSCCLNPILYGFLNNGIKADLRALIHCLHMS
In words: 125I-PYY displacement, COS-7 membranes.

The target of assay [3] is rat Y2 receptor (rat) (UniProt Q9ERC0). In words: 125I-PYY displacement, COS-7 membranes.
Assay [4] deals with rat Y1 receptor (rat) (UniProt P21555). The assay is described as follows: 125I-PYY displacement, COS-7 membranes.
The target in assay [5] is membranes from rat hypothalamus. In words: 125I-PYY displacement, rat hypothalamic membranes; high-affinity part of a two-part curve.
Assay [6] deals with human hippocampal Y5 receptor (human).
The target of assay [7] is T1, rat hypothalamic Y5 receptor (rat).
In assay [8] the target is human Y2 receptor (human) (UniProt P49146). In words: 125I-PYY displacement, COS-7 membranes.
Assay [9] has as its target T1, rat hypothalamic Y5 receptor (rat). The assay is described as follows: 125I-PYY displacement, COS-7 membranes. The source holds these as a separate data set.
Assay [10] concerns the target human hippocampal Y5 receptor (human). The assay is described as follows: 125I-PYY displacement, COS-7 membranes.
Assay [11] shares this target. The assay is described as follows: 125I-PYY3-36 displacement, LM(tk-) membranes.
For assay [12] the target is unchanged. In words: 125I-PYY displacement, LM(tk-) membranes.
Assay [13] concerns the target T1, rat hypothalamic Y5 receptor (rat). In words: 125I-PYY displacement, COS-7 membranes. The source holds these as a separate data set.
Assay [14] deals with human Y1 receptor (human) (UniProt P25929). In words: 125I-PYY displacement, COS-7 membranes.
The target in assay [15] is human Y4 receptor (human) (UniProt P50391). In words: 125I-PYY displacement, COS-7 membranes.
In assay [16] the target is T1, rat hypothalamic Y5 receptor (rat). The assay is described as follows: time course, 0.08 nM radioligand, room temperature, 138 mM Na+.
Assay [17] shares this target. In words: time course, 0.08 nM radioligand, room temperature, 10 mM Na+.
The target is the same in assay [18]. In words: saturation binding, isotonic buffer, room temperature, COS-7 membranes.
Assay [19] has the same target. This is another data set of the same source.
Assay [20] deals with human hippocampal Y5 receptor (human). The assay is described as follows: 125I-PYY displacement.
Assay [21] concerns the target rat Y4 receptor (rat) (UniProt Q63447). In words: 125I-PYY displacement, COS-7 membranes. This is another data set of the same source.
For assay [22], the target named is human Y2 receptor (human) (UniProt P49146). In words: 125I-PYY displacement, COS-7 membranes. The source holds these as a separate data set.
In assay [23] the target is human Y1 receptor (human) (UniProt P25929). The assay is described as follows: 125I-PYY displacement, COS-7 membranes. This is another data set of the same source.
For assay [24], the target named is rat Y2 receptor (rat) (UniProt Q9ERC0). The assay is described as follows: 125I-PYY displacement, COS-7 membranes. The source holds these as a separate data set.
The target in assay [25] is rat Y1 receptor (rat) (UniProt P21555). The assay is described as follows: 125I-PYY displacement, COS-7 membranes. The source holds these as a separate data set.
The target of assay [26] is rat Y4 receptor (rat) (UniProt Q63447). The assay is described as follows: 125I-PYY displacement, COS-7 membranes. The source holds these as a separate data set.
Assay [27] addresses rat Y2 receptor (rat) (UniProt Q9ERC0). The assay is described as follows: 125I-PYY displacement, COS-7 membranes. The source holds these as a separate data set.
For assay [28], the target named is membranes from rat hypothalamus. The assay is described as follows: 125I-PYY displacement, rat hypothalamic membranes.
Assay [29] has as its target human hippocampal Y5 receptor (human). The source holds these as a separate data set.
For assay [30] the target is unchanged. This is another data set of the same source.
The target is the same in assay [31]. The assay is described as follows: 125I-PYY displacement, COS-7 membranes. This is another data set of the same source.

Sequence of rat Y4 receptor (rat) (Q63447 whole entry): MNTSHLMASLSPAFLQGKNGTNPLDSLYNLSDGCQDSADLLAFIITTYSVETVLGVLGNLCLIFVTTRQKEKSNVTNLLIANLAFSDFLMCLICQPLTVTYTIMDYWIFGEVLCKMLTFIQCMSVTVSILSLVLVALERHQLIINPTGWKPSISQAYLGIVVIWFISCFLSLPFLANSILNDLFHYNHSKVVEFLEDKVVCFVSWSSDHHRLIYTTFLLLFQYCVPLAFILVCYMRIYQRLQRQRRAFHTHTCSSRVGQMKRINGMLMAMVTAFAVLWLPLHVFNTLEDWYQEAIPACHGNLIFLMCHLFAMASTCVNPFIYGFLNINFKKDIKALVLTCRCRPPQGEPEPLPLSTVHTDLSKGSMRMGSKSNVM

By Ki is commonly meant a dissociation constant, usually derived from enzyme kinetics or from competition with a known ligand. What is called IC50 is the midpoint of a concentration-inhibition curve. Low readings indicate greater potency in that assay, high ones weaker potency in that assay. Take “human [Leu^31, Pro^34]NPY (from UniProt P01303) (peptide)”: the Ki in the assay with rat Y4 receptor (rat) [1] is 0.59 nM; in assay [2], 1 nM; with rat Y2 receptor (rat) [3], above 1000 nM; with rat Y1 receptor (rat) [4], 0.1 nM; in [8], above 130 nM. In assay [5], the IC50 was 0.21 nM. The inhibition of forskolin-stimulated cAMP accumulation, EC50 in assay [6] is 3 nM; in assay [7], 0.6 nM. For the same substance, in assay [7], the maximum inhibition of forskolin-stimulated cAMP accumulation (Emax) stood at 70%.

porcine C2-NPY (peptide): the Ki is 260 nM in assay [9]; 370 nM in [10]; 22 nM in the assay with rat Y4 receptor (rat) [1]; above 260 nM in assay [2]; 2.6 nM with rat Y2 receptor (rat) [3]; 140 nM with rat Y1 receptor (rat) [4]. Also, the Ki in [11] was determined as 220 nM; in assay [12], 260 nM; in [8], 3.5 nM; in [13], 470 nM; in assay [14], 79 nM; in [15], 120 nM. In assay [7], this substance returned an inhibition of forskolin-stimulated cAMP accumulation, EC50 of 240 nM.

On to “porcine NPY3-36, P01304 (peptide; other documents disagree on this pair)”, for which the inhibition constant Ki with rat Y4 receptor (rat) [1] was 36 nM.

“human NPY2-36, P01303 (peptide; other documents disagree on this pair)”: in the assay with rat Y4 receptor (rat) [1], the Ki amounted to 5 nM.

In the case of frog NPY (melanostatin) (peptide), the Ki in assay [2] is 0.71 nM; in the assay with rat Y2 receptor (rat) [3] it was 0.65 nM; with rat Y1 receptor (rat) [4], 0.09 nM.

Turning to “porcine [Leu^31, Pro^34]NPY (from UniProt P01304) (peptide)”, the results for the Ki with rat Y4 receptor (rat) [1], with rat Y2 receptor (rat) [3] and with rat Y1 receptor (rat) [4] were 0.32 nM, 840 nM and 0.25 nM, respectively.

Substance avian PP (peptide) returned a Ki in the assay with rat Y2 receptor (rat) [3] above 1000 nM.

“rat/human NPY, P01303 (peptide; carboxy terminal amide; other documents disagree on this pair)”: the Ki with rat Y4 receptor (rat) [1] worked out at 1.7 nM.

The Kd is the free concentration of one partner at which half of the binding sites on the other are occupied at equilibrium, for simple one-to-one binding. Lower therefore signals a tighter complex. As usually defined, the pKd is the Kd on a negative log10 scale, so that one unit is a factor of ten. High values mean a low Kd, low ones a high Kd. In assay [16], “porcine ^125I-[Leu^31, Pro^34]PYY (from UniProt P68005) (peptide)” had a maximal specific binding of 330 fmol/mg, an observed association rate (Kobs) of 0.029 min⁻¹ and a t1/2 of association of 24 min. In assay [17], this substance returned a maximal specific binding of 480 fmol/mg, an observed association rate (Kobs) of 0.042 min⁻¹ and a t1/2 of association of 17 min. In assay [18], the Kd was 0.072 nM and the pKd is 10.1.

For W(nor-L)RF-amide (peptide), the Ki in assay [2] is 8700 nM.

Consider “human [D-Trp^32]NPY (from UniProt P01303) (peptide)”, for which the inhibition of forskolin-stimulated cAMP accumulation, EC50 in [19] is 7.5 nM and 25 nm; in assay [6] it was 26 nM; in assay [7], 9.5 nM. Further, the Ki in assay [10] is 35 nM; in [20], 18 nM; in the assay with rat Y4 receptor (rat) [1], above 630 nM; in assay [2], 35 nM; in the assay with rat Y2 receptor (rat) [3], 760 nM; with rat Y1 receptor (rat) [4], above 1000 nM. Besides, the Ki in assay [11] was 10 nM; in assay [12], 16 nM; with rat Y4 receptor (rat) [21], above 500 nM; in assay [22], above 500 nM; in assay [23], above 500 nM; in the assay with rat Y2 receptor (rat) [24], above 500 nM. Further, the Ki was above 500 nM with rat Y1 receptor (rat) [25]; above 1000 nM in the assay with rat Y4 receptor (rat) [26]; above 1000 nM in assay [8]; 53 nM in assay [13]; above 1000 nM in assay [14]; above 1000 nM with rat Y2 receptor (rat) [27]. In assay [7], this substance registered a maximum inhibition of forskolin-stimulated cAMP accumulation (Emax) of 72%.

Turning to “human PP (from UniProt P01298) (peptide)”, in [6], the % inhibition of cAMP accumulation relative to human NPY came to 96% and the inhibition of forskolin-stimulated cAMP accumulation, EC50 was found to be 14 nM.

Substance “human PP2-36 (from UniProt P01298) (peptide)” displayed an inhibition of forskolin-stimulated cAMP accumulation, EC50 in assay [6] of 2 nM.

Take “human PYY3-36 (from UniProt P10082) (peptide)”: the inhibition of forskolin-stimulated cAMP accumulation, EC50 worked out at 18 nM in [6] and 4.9 nM in assay [7].

Regarding “rat/human NPY (from UniProt P01303) (peptide)”, in [28], the half-inhibitory concentration (IC50) was 0.82 nM. For the same substance, in assay [29], the inhibition of forskolin-stimulated cAMP, EC50, LM(tk-) cells was 2.4 nM; the inhibition of forskolin-stimulated cAMP, EC50, NIH-3T3 cells amounted to 8.5 nM; the maximum inhibition of forskolin-stimulated cAMP (Emax), LM(tk-) cells turned out to be 72%; the maximum inhibition of forskolin-stimulated cAMP (Emax), NIH-3T3 cells was 42%. This substance displayed an inhibition of forskolin-stimulated cAMP accumulation, EC50 in assay [6] of 2.7 nM. Also, the intracellular free calcium concentration (Fura-2) in [30] was found to be 34 nM. In [7], this substance came in with an inhibition of forskolin-stimulated cAMP accumulation, EC50 of 1.8 nM and a maximum inhibition of forskolin-stimulated cAMP accumulation (Emax) of 67%.

On to “human NPY2-36 (from UniProt P01303) (peptide)”, for which the IC50 in assay [28] amounted to 2.3 nM. In assay [7], the inhibition of forskolin-stimulated cAMP accumulation, EC50 turned out to be 2 nM and the maximum inhibition of forskolin-stimulated cAMP accumulation (Emax) was determined as 84%.

The substance “human NPY free acid, P01303 (peptide; free carboxylic acid at the carboxy terminus instead of the amide; other documents disagree on this pair)” gave a Ki with rat Y4 receptor (rat) [1] above 1000 nM.

The substance “human [Ile^31, Gln^34]PP (from UniProt P01298) (peptide)” came in with a Ki in assay [10] of 2 nM. Besides, the inhibition of forskolin-stimulated cAMP accumulation, EC50 in assay [6] was determined as 5.6 nM.

Regarding salmon PP (peptide), the inhibition constant Ki came to 0.27 nM in [10]; 3 nM with rat Y4 receptor (rat) [1]; 0.33 nM in assay [2]; 0.16 nM with rat Y2 receptor (rat) [3]; 0.3 nM in the assay with rat Y1 receptor (rat) [4]; 0.63 nM in [11]. Further, the Ki in assay [8] came out at 0.17 nM; in assay [13], 0.31 nM; in assay [14], 0.11 nM; in [31], 0.46 nM; in [15] it was 3.2 nM. Also, in assay [6], the % inhibition of cAMP accumulation relative to human NPY is 96%. Further, the inhibition of forskolin-stimulated cAMP accumulation, EC50 amounted to 4.5 nM in assay [6] and 0.92 nM in assay [7].

With frog PP (rana temporaria) (peptide), the Ki in the assay with rat Y4 receptor (rat) [1] was above 1000 nM; in assay [2] it was above 550 nM; with rat Y2 receptor (rat) [3] it was above 980 nM; with rat Y1 receptor (rat) [4] it was 720 nM.

In turn, “human PYY (from UniProt P10082) (peptide)” registered a 50% inhibitory concentration (IC50) in [28] of 1.3 nM. Further, in [6], the % inhibition of cAMP accumulation relative to human NPY was determined as 111% and the inhibition of forskolin-stimulated cAMP accumulation, EC50 was found to be 4.9 nM.
